The target of one data set is T1, PEPS (SSO0883) (Saccharolobus solfataricus, UniProt Q97ZL2).
T1 construct: gene ppsA-1; full-length, codon-optimised synthetic gene in pET11c, E. coli Rosetta (DE3) pRIL; partially purified by heat precipitation; no tag mentioned
T1 sequence (Q97ZL2 1-799): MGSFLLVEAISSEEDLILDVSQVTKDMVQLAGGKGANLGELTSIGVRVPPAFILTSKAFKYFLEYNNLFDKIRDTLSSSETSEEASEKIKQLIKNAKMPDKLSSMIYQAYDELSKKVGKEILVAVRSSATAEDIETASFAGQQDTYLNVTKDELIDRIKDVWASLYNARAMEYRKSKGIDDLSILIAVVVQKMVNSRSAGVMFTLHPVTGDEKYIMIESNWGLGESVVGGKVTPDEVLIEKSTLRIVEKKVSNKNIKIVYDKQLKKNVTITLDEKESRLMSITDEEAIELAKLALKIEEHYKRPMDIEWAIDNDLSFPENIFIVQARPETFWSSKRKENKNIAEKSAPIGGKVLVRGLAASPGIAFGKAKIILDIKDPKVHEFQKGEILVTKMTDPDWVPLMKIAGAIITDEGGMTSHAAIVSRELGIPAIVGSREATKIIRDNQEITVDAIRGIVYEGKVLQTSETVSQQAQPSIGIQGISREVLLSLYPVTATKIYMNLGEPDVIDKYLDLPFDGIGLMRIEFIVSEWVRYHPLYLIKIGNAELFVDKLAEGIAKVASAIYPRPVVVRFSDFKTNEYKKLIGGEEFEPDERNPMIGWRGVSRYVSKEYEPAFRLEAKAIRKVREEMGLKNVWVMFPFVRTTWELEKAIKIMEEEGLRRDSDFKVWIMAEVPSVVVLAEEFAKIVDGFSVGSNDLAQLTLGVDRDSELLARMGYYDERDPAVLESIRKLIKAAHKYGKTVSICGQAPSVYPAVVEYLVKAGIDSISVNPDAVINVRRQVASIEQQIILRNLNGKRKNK
Nature of the data set: discontinuous assay, PEP detected with PK/LDH, NADH […] nm. Type of data set: biochemical. Conditions: read-out: % residual activity at 1 mM.

The target in another data set is T2, PK (SSO0981) (Saccharolobus solfataricus, UniProt Q97ZD7).
T2 construct: gene pyK; full-length ORF in pET324, E. coli Rosetta (DE3) pRIL; heat precipitation, ion exchange, gel filtration; no tag mentioned
T2 sequence (Q97ZD7 1-452): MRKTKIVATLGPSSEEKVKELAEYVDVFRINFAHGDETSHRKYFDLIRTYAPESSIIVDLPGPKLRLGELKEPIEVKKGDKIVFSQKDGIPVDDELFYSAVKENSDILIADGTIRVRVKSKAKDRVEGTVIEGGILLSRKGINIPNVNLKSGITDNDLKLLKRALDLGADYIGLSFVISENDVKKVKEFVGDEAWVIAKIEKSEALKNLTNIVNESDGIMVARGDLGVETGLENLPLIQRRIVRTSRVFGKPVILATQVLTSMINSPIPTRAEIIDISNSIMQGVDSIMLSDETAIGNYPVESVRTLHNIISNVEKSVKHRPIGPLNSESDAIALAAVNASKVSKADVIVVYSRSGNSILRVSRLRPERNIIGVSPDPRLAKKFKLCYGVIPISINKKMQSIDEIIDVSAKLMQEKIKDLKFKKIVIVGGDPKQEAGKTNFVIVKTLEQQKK
Kind of data set: continuous LDH-coupled assay, NADH […] nm. Type of data set: biochemical. Conditions: non-competitive, allosteric; printed Ki equals the approximate concentration for 50% inhibition; half-saturating 0.03 mM PEP, 2 mM ADP, 10 mM MgCl2, 60°C (b61 says 70°C).

Substrate in data set [1]: CC(=O)C(=O)O
Kind of data set: purified protein. Conditions: 70°C, pH 7.0, 100 mM Tris/HCl, 10 mM MgCl2, co-substrate ATP, anabolic direction. Type of data set: biochemical, Saccharolobus solfataricus.

Substrate in data set [2]: Nc1ncnc2c1ncn2[C@@H]1O[C@H](COP(=O)(O)OP(=O)(O)OP(=O)(O)O)[C@@H](O)[C@H]1O
Kind of data set: purified protein. The class given is biochemical, Saccharolobus solfataricus. To be noted: 70°C, pH 7.0, 100 mM Tris/HCl, 10 mM MgCl2, co-substrate pyruvate, anabolic direction.

Substrate in data set [3]: C=C(OP(=O)(O)O)C(=O)O
Kind of data set: purified protein. The class given is biochemical, Saccharolobus solfataricus. Conditions: 70°C, pH 6.5, 0.1 M HEPES, 10 mM MgCl2, co-substrate ADP.

Substrate in data set [4]: Nc1ncnc2c1ncn2[C@@H]1O[C@H](COP(=O)(O)OP(=O)(O)O)[C@@H](O)[C@H]1O
Kind of data set: purified protein. The class given is biochemical, Saccharolobus solfataricus. Conditions: 70°C, pH 6.5, 0.1 M HEPES, 10 mM MgCl2, co-substrate PEP.

Take `O=C(O)CCC(=O)C(=O)O` [α-ketoglutarate]: the remaining activity at 1000 µM at PEPS (SSO0883) was about 80%.

As for `Nc1ncnc2c1ncn2[C@@H]1O[C@H](COP(=O)(O)O)[C@@H](O)[C@H]1O` [AMP], the remaining activity at 1000 µM at PEPS (SSO0883) is about 80%.

Turning to `Nc1ncnc2c1ncn2[C@@H]1O[C@H](COP(=O)(O)OP(=O)(O)OP(=O)(O)O)[C@@H](O)[C@H]1O` [ATP], the IC50 on PK (SSO0981) was 800 µM.

B1: PEPS (SSO0883) (Saccharolobus solfataricus P2) (protein)
chain: T1 sequence (Q97ZL2 1-799)
notes: full-length, codon-optimised synthetic gene in pET11c, E. coli Rosetta (DE3) pRIL; partially purified by heat precipitation; no tag mentioned
B1: in “purified protein [1]”, the Km turned out to be 460 µM, the Vmax was determined as 0.32 µmol/min/mg, the kcat worked out at 0.48 s⁻¹ and the kcat/Km stood at 1040 M⁻¹ s⁻¹. Further, in “purified protein [2]”, the Km is 610 µM, the Vmax was 0.22 µmol/min/mg, the kcat was determined as 0.33 s⁻¹ and the kcat/Km turned out to be 530 M⁻¹ s⁻¹.

B2: PK (SSO0981) (Saccharolobus solfataricus P2) (protein)
chain: T2 sequence (Q97ZD7 1-452)
notes: full-length ORF in pET324, E. coli Rosetta (DE3) pRIL; heat precipitation, ion exchange, gel filtration; no tag mentioned
Take B2: in the data set “purified protein [3]”, the Km was found to be 90 µM, the Vmax came to 70.4 µmol/min/mg, the turnover number (kcat) is 58.4 s⁻¹ and the kcat/Km turned out to be 628000 M⁻¹ s⁻¹. In the data set “purified protein [4]”, the Km is 70 µM, the Vmax was found to be 70.8 µmol/min/mg, the kcat was 58.8 s⁻¹ and the kcat/Km stood at 852000 M⁻¹ s⁻¹.

The values are drawn from publication PMC6474364, “The Carbon Switch at the Level of Pyruvate and Phosphoenolpyruvate in Sulfolobus solfataricus P2” (Frontiers in Microbiology, 2019).
